In article PMC10329638:

Molecular target: rat ASIC3 wild type (rat) (UniProt O35240)
Chain of UniProt O35240 (O35240 whole entry): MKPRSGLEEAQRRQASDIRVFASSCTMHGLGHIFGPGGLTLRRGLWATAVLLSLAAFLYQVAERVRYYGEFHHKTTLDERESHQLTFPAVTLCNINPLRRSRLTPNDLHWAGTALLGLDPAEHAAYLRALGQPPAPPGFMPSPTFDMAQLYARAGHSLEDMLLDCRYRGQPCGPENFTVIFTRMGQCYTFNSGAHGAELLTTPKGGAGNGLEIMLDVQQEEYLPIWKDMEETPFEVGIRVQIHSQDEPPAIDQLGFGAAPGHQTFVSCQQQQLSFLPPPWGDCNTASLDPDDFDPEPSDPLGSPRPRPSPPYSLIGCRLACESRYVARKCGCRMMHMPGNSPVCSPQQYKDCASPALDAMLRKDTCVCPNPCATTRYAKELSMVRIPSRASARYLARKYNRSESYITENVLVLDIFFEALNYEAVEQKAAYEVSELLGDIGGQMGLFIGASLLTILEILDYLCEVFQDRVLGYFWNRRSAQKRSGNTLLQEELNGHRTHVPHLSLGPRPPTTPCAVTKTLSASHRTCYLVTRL

- proton-gated currents of Xenopus oocytes co-expressing wild-type ASIC3 and mutant ASIC2a (two-electrode voltage clamp, pH 7.0 to 3): > 1 µA
Substance: rat ASIC2a-H72N (from UniProt Q62962-1 1-512) (natural protein)
